Experimental data: patent US20220204643A1 (published 2022)
Blank lines part the entries; values can stand above or below the binder they belong to.

How the values were obtained:
[1] = target: T1, anterior gradient 3, protein disulphide isomerase family member (human, UniProt Q8TD06 22-166)
T1 construct: HuProt array protein, full-length recombinant from yeast; also called AGR3
T1 sequence: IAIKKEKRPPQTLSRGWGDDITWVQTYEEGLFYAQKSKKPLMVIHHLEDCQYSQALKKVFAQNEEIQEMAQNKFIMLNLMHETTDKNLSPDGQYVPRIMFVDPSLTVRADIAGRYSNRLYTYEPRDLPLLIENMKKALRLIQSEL

[2] = target: T2, X-linked inhibitor of apoptosis, transcript variant 2 (human, UniProt P98170 1-497); experiment: protein array
T2 construct: on protein array; also called XIAP

Bcl2 like 1 = target: T3, Bcl2 like 1 (human, UniProt Q07817 1-233)
T3 construct: HuProt array protein, full-length recombinant from yeast; also called BCL2L1

[3] = target: T4, proteasome 26S subunit, non-ATPase 4, transcript variant 2 (human, UniProt P55036 1-377)
T4 construct: HuProt array protein, full-length recombinant from yeast; also called PSMD4

[4] = target: T5, Src like adaptor, transcript variant 1 (human, UniProt Q13239 2-276)
T5 construct: HuProt array protein, full-length recombinant from yeast; also called SLA
T5 sequence: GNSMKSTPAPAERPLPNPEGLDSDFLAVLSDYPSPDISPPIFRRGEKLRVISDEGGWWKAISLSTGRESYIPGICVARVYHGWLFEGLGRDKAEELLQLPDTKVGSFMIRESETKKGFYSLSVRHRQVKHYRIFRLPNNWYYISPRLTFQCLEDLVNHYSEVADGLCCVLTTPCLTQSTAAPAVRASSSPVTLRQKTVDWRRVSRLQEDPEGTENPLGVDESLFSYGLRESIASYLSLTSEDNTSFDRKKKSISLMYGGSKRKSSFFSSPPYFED

[5] = target: T6, arginine and glutamate rich 1 (human, UniProt Q9NWB6 1-273)
T6 construct: HuProt array protein, full-length recombinant from yeast; also called ARGLU1
T6 sequence: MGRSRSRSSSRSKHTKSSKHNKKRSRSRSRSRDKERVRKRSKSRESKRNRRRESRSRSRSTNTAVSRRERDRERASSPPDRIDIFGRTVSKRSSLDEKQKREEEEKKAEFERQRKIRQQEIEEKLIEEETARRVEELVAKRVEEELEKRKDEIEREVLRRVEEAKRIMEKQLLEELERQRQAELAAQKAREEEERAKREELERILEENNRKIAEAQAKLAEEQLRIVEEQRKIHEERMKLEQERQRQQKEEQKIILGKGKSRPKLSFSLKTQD

[6] = target: T7, SAS-6 centriolar assembly protein, transcript variant 2 (human, UniProt Q6UVJ0 168-657)
T7 construct: HuProt array protein, full-length recombinant from yeast; also called SASS6
T7 sequence: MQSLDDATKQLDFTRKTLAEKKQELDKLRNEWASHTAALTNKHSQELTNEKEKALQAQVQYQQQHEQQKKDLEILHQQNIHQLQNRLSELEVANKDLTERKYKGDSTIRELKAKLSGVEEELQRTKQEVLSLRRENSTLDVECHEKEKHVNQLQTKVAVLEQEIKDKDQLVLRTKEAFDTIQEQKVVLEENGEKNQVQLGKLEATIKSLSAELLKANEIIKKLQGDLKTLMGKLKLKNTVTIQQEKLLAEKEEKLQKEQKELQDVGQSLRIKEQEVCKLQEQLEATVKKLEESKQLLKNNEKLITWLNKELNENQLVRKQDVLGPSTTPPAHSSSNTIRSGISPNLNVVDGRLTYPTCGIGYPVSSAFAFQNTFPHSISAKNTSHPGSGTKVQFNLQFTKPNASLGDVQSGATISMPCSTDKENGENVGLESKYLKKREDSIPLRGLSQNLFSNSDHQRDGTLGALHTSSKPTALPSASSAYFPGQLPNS

[7] = target: T8, ubiquilin 1, transcript variant 2 (human, UniProt Q9UMX0 2-589)
T8 construct: HuProt array protein, full-length recombinant from yeast; also called UBQLN1

Ubiquilin 3 = target: T9, Ubiquilin 3 (human, UniProt Q9H347 1-655)
T9 construct: HuProt array protein, full-length recombinant from yeast; also called UBQLN3
T9 sequence: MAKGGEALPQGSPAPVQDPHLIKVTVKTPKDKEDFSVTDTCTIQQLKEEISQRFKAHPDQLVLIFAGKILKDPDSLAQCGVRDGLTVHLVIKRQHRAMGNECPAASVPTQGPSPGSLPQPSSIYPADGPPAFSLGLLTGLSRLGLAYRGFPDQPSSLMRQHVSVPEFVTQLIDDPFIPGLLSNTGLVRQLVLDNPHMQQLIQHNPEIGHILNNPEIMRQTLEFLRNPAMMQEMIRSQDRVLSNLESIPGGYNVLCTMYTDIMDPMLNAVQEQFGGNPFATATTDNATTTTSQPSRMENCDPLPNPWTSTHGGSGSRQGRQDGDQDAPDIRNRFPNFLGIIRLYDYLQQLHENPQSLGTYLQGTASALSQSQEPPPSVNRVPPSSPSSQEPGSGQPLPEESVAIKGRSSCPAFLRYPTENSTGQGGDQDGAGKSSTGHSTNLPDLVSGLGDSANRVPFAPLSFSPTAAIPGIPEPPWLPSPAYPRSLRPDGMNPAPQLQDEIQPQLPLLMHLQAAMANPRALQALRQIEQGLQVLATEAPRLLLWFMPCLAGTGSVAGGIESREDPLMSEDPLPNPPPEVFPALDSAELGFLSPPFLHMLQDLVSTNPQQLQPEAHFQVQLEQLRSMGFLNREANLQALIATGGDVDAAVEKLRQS

ubiquilin 2 = target: T10, ubiquilin 2 (human, UniProt Q9UHD9 2-624)
T10 construct: HuProt array protein, full-length recombinant from yeast; also called UBQLN2

zinc finger protein 296 = target: T11, zinc finger protein 296 (human, UniProt Q8WUU4 1-475)
T11 construct: HuProt array protein, full-length recombinant from yeast; also called ZNF296
T11 sequence: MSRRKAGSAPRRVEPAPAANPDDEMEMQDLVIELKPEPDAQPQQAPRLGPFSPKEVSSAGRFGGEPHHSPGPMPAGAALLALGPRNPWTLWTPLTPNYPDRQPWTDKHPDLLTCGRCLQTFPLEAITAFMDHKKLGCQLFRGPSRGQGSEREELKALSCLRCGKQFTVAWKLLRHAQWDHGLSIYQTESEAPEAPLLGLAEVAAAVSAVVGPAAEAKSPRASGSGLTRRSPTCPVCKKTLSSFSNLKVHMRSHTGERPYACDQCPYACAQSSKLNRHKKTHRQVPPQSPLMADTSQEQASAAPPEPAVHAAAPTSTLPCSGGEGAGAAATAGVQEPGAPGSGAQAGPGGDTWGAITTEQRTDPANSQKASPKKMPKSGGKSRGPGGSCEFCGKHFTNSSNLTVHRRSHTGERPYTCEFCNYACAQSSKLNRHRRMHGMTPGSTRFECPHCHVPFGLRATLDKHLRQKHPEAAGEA

[8] = target: phosphodiesterase 5A, transcript variant 1 (human, UniProt O76074 1-875)
nudix hydrolase 21 = target: T12, nudix hydrolase 21 (human, UniProt O43809 2-227)
T12 construct: HuProt array protein, full-length recombinant from yeast; also called NUDT21

[9] = target: T13, zinc finger protein 431, transcript variant 2 (human, UniProt Q8TF32 1-576)
T13 construct: HuProt array protein, full-length recombinant from yeast; also called ZNF431

Zinc finger protein 699 = target: T14, Zinc finger protein 699 (human, UniProt Q32M78 1-642)
T14 construct: HuProt array protein, full-length recombinant from yeast; also called ZNF699

[10] = target: T15, microtubule associated scaffold protein 2, transcript variant 2 (human, UniProt Q5JR59 1040-1369)
T15 construct: HuProt array protein, full-length recombinant from yeast; also called MTUS2
T15 sequence: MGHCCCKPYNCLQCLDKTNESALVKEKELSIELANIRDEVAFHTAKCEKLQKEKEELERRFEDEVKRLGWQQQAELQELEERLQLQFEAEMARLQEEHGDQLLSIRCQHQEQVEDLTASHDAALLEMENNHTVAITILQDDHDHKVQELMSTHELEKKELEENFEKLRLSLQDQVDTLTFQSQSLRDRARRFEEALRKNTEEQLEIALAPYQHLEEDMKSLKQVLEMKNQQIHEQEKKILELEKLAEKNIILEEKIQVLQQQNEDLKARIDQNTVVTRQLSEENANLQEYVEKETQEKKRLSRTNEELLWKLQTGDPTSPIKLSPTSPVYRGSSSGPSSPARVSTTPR

T2 sequence (P98170 whole entry, change not shown): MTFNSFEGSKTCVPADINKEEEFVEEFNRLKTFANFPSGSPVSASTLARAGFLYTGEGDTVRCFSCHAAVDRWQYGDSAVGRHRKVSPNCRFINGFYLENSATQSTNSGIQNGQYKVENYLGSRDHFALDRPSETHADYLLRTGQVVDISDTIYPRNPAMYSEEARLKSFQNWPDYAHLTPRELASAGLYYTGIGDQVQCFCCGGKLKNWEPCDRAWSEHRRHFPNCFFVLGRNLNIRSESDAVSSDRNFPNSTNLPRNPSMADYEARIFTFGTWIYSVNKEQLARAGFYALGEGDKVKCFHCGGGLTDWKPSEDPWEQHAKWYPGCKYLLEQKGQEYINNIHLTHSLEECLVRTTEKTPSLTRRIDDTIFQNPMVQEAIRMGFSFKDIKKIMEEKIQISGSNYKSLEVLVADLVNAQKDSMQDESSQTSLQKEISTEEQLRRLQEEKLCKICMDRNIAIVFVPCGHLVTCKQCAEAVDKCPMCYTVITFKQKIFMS
T10 sequence (Q9UHD9 2-624 limits assumed): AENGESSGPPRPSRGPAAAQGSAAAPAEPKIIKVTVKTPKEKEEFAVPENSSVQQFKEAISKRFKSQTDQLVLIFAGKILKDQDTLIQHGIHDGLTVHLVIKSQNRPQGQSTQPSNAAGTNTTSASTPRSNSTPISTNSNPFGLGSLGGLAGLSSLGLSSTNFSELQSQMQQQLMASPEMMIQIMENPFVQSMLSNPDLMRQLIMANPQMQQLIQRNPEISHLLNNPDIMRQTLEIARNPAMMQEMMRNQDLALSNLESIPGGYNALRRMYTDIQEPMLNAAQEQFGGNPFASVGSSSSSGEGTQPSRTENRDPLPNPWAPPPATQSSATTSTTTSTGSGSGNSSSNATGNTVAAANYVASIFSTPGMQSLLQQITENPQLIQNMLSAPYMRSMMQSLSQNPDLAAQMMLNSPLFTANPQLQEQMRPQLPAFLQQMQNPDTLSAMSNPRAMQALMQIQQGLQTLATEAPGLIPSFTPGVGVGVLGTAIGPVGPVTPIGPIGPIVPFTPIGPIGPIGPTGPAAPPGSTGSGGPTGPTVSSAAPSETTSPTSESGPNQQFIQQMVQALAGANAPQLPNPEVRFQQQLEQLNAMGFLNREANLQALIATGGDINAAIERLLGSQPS
T14 sequence (Q32M78 whole entry): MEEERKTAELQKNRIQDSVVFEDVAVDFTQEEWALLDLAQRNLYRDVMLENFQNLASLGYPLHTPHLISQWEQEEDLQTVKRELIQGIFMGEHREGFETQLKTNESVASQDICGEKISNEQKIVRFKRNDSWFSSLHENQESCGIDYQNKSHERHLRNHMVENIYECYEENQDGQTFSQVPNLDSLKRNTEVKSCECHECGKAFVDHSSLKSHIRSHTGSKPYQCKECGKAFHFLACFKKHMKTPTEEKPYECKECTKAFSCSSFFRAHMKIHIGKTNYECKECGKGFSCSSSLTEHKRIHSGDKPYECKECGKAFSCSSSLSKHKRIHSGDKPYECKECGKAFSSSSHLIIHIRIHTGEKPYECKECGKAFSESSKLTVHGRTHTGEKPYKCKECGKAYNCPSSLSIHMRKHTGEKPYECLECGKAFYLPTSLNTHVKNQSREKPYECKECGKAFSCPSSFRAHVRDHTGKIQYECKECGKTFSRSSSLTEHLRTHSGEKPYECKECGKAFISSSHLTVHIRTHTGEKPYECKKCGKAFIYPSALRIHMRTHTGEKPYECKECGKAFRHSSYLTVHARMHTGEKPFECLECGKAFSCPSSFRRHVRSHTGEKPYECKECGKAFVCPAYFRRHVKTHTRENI
T4 sequence (P55036 whole entry, change not shown): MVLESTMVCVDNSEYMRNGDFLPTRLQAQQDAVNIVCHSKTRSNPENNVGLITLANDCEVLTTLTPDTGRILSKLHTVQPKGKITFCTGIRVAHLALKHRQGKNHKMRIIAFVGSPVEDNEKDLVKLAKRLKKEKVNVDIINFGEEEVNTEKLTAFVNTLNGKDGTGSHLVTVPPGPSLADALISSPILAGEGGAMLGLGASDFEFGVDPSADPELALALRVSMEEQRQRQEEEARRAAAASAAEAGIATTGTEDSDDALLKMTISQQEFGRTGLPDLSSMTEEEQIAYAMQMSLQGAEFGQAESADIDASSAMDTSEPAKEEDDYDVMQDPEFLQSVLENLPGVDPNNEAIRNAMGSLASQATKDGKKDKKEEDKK
T12 sequence (O43809 2-227 limits assumed): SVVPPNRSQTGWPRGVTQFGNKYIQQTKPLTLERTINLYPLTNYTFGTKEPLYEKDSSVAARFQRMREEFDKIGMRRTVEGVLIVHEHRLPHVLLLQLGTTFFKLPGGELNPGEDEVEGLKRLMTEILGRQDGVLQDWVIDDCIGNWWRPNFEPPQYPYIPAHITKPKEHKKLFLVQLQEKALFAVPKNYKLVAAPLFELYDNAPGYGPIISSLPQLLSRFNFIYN
T13 sequence (Q8TF32 other isoform, or with tags, fused parts or gaps mutant limits assumed): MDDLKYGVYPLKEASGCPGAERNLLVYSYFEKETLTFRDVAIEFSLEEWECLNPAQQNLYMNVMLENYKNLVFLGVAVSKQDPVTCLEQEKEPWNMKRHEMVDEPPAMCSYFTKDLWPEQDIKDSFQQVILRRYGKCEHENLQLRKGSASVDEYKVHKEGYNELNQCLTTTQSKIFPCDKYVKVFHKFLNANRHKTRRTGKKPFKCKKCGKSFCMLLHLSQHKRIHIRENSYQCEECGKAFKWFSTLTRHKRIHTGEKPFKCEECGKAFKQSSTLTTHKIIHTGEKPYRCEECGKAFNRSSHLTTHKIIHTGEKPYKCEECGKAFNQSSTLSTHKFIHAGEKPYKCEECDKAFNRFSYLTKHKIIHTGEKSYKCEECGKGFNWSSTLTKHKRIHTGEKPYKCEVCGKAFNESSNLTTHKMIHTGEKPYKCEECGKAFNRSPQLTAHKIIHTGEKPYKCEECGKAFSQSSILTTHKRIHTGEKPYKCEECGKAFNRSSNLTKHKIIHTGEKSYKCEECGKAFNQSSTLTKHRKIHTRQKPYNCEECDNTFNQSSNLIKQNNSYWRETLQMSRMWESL
T3 sequence (Q07817 whole entry): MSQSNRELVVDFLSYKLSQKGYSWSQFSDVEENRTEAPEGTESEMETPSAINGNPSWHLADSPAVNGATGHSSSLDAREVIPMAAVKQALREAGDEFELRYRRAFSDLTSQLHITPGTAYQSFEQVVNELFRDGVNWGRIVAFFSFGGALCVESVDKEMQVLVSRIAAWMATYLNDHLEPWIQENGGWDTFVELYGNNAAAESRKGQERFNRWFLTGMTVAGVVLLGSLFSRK
T8 sequence (Q9UMX0 other isoform, or with tags, fused parts or gaps mutant limits assumed): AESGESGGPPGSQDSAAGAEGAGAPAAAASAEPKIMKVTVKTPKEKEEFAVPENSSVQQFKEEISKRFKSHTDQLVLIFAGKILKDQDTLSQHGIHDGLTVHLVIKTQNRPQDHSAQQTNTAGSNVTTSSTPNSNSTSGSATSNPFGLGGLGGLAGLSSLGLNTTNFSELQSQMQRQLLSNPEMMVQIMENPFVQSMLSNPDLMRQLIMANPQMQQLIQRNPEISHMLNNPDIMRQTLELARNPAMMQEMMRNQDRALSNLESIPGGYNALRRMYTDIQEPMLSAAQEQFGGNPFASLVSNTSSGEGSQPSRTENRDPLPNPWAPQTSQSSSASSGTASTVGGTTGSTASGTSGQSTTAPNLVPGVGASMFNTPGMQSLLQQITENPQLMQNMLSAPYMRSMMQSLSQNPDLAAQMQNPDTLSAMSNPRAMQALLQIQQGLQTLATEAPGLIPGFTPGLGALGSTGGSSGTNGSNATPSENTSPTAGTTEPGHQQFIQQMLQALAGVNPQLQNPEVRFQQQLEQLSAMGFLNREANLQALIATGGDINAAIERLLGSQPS

B1: TMEL1020 (antibody, V domains shown)
VH: QVHLVQSGAEVKKPGASVKVSCKASGYTFTNYFIHWVRQAPGQGPEWMGVINPSFGSTTYAQKLQGRVTMTRETSTSTVYMELSSLRSEDTAVYYCARESLDSASYSTIAHWGQGTLVTVSS
VL: EIVLAQSPGTLYLSPGERATLSCRASQSVRGNYLAWYQQRPGQAPRLLIYGASSRATGIPDRFGGSGSGTDFTLTITRLLPEDFAVYYCHQYGSSPRTFGQGTKVEIKR
notes: detected with anti-human IgG Fc
binding result [1]: binds

B2: TBRE1032 (antibody, V domains shown)
VH: EVQLVESGGGLVQPGGSLRLSCAASGFTFSSYDFHWVRQPTGKGLEWVSAIGTAGDTLYLDSVKGRFTISRENAKNSLYLQMNSLRAGDTAVYYCARVNWNSDTFDSWGQGTLVTVSS
VL: VSSELTQDPAVSVALGQTVRITCQGDSLRRYYASWYQQKAGQAPILVIYGENNRPSGIPDRFSGSGSGNTASLTITGAQAEDEADYYCDSRDSSGNLVVFGGGTKLTVL
notes: VH/VL only
binding result [2]: binds

B6: TMEL1018 (antibody, V domains shown)
VH: PLQLQESGPGLVKPSETLSLTCTVSGGSISSSSYYWGWIRQPPGKGLEWIGSIYYSGSTYYNPSLKSRVTISVDTSKNQFSLKLSSVTAADTAVYSCARLLVGGAFDIWGQGTMVTVSS
VL: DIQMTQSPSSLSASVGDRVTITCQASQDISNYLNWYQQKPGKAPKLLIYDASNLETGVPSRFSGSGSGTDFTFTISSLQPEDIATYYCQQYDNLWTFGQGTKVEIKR
notes: as for B1
binding result [7]: binds | binding result (Ubiquilin 3): binds | binding result (ubiquilin 2): binds

B7: TMEL1028 (antibody, V domains shown)
VH: QVQLVQSGAEVKKPGASVKVSCKASGYTFTSYGISWVRQAPGQGLEWMGWISAYNGNTNYAQKLQGRVTMTTDTSTSTAYMELRSLTSDDTAVYYCARDQGLERANWFDPWGQGTLVTVSS
VL: not shown
notes: as for B1
binding result (zinc finger protein 296): binds | binding result [8]: binds

Continued, values first:

binding result (Bcl2 like 1): binds
B3: TMEL1030 (antibody, V domains shown)
VH: QVQLQESGPGLVKPSGTLSLTCAVSGGSISSSNCWSWVRQPPGKGLEWLGEICHSGSTSYNPSLKSRVTISVDKSKNQFSLKLRSVTAADTAVYYCARESPLTVVFDYWGQGTLVTVSS
VL: DIQMTQSPSSLSASVGDRVTITCRASQGIRNDLGWFQQKPGKAPKRLIYAASNLPSGVSSRFSGSGSGTEFTLTISSLQPEDFATYYCLQHNNYPLTFGQGTKVEFKR
notes: as for B1

binding result [3]: binds | binding result [4]: binds
B4: TMEL1032 (antibody, V domains shown)
VH: QVQLVQSGAEVRKPGASVKVSCKASGYTFTTYYIHWVRQAPGQGLEWMGLINPNGGTTNYAQKFQGRLSMTTDTSTNTVYMELSSLRSEDTAVYYCARKLMSGIVSRGWFDPWGQGTLVTVSS
VL: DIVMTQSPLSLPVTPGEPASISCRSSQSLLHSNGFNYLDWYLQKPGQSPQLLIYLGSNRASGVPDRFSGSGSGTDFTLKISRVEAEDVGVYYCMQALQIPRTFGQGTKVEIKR
notes: as for B1

binding result [5]: binds | binding result [6]: binds
B5: TMEL1031 (antibody, V domains shown)
VH: EVQLVESGGGLVQPGGSLRLSCAASGFTVSSNYMSWVRQAPGKGLEWVSVIYSGGSTYYADSVKGRFTISRDNSKNTLSLQMNSLRAEDTAVYYCARESSAAGYDYWGQGTLVTVSS
VL: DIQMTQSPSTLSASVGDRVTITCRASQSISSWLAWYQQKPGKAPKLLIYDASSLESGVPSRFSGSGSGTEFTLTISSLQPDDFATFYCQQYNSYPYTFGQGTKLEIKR
notes: as for B1

binding result (nudix hydrolase 21): binds | binding result [9]: binds | binding result (Zinc finger protein 699): binds
B8: TMEL1033 (antibody, V domains shown)
VH: PVQLQESGPGLVKPSETLSLTCTVSGGSVSSGSYYWSWIRQPPGKGLEWIGYIYYSGSTNYNPSLKSRVTISVDTSKNQFSLKLSSVTAADTAVYYCARDRGDYVTHWFDPWGQGTLVTVSS
VL: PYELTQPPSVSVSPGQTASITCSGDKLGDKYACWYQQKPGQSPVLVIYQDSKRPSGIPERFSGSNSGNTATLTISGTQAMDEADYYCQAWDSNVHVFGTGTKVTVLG
notes: as for B1

binding result [10]: binds
B9: TMEL1027 (antibody, V domains shown)
VH: QVQLVQSGAEVKKPGASVKVSCKASGYTFTVYYMHWVRQAPGQGLEWMGRINPNSGGTNYAQKFQGRVTMTRDTSISTAYMELSRLTSDDTAVYYCARVVVVGTDYGMDVWGQGTTVTVSS
VL: VSSELTQDPAVSVALGQTVRITCQGDSLRSYYASWYQQRPGQAPVLVIYGKNNRPSGIPDRFSGSSSGNTASLTITGAQAEDEADYYCNSRDSSGNHVFGTGTKVTVLG
notes: as for B1
